Laboratory results taken from patent US20220315908A1, “NOVEL GARDNERELLA ENDOLYSINS AND USES THEREOF” (priority 2019, published 2022).

B1: H2B2: natural Gardnerella prophage endolysin from strain Gv18-4 (protein)
chain: MSKRGIDVSEWQGDIDFNAVKASGVEFVIIRAGYGIGCKDKWFEQNYRKAKTCGLDVGAYWYSYANSGFEAAEEAQSCVNMLSGKSFEYPVYFDLEEKSQLNRGRAFCDSLITGFCNKLESCGYYAGFYTSLSTANNLVSAHVRNRYALWIAQWNTHCSYQGSYGLWQYSSSGSVPGVAGRVDMDYAYVDYPSIIKNVGLNGCKNGGSDQAARTSSIDEVAREVINGAWGNGNERKQRLTSAGYDYASVQNKVNELLGVKACRKSVDEIAREVIRGTWGNGSTRKQRLTQAGYDYDTVQKRVNELL
modifications: EL2_strain_Gv18-4
B2: H1B1: natural Gardnerella prophage endolysin from strain HMP9231 (protein)
chain: MSKKGIDVSEWQGDIDFNAVKASGVEFVIIRAGYGIGCKDKWFEQNYRKAKTAGLDVGAYWYSYANSGFEAAEEAQSLMNMLSGKSFEYPVYFDLEEKSQLNRGRAFCDSLITSFCNKLEACGYYAGFYTSLSTANNLVSAHVRNRYALWIAQWNTHCNYQGSYGLWQYSSNGSVPGVAGRVDMDYAYVDYPSIIKNAGLNGCKNGGSDQAARTSSIDEVAREVINGAWGNGSTRKQRLTSAGYDYASVQNKVNELLGVKACRKSVDELAREVIRGAWGNGSTRKQRLAQAGYDYDTVQKRVNELL
modifications: EL1_strain_HMP9231
notes: natural Gardnerella prophage endolysin from strain HMP9231
B3: H10B10: natural Gardnerella prophage endolysin from strain G30-4 (protein)
chain: MSKRGIDVSVWQGDIDFNAVKASGVEFVIIRAGYGIGHKDKWFEENYRKAKTVGLDVGAYWYSYASSAGEASEEAQSCVNILSGKSFEYPVYFDLEEKSQLNRGRDFCDSLITSFCNKLEACGYYAGFYTSLSVANNLVSSHVRDRYALWIAQWNTHCSYQGSYGLWQYSSSGSVNGIAGRVDMDYAYVDYPSVIKNAGLNGYKNGGSYTAPQISSIDEVAREVINGDWGNGNERKQRLTSAGYDYASVQNKVNELLGVKAYRKSVDELAREVIRGTWGNGSTRKQRLTQAGYDYNAVQKRVNELL
modifications: EL10_strain_G30-4
B4: H12B12: natural Gardnerella prophage endolysin from strain 3549624 (protein)
chain: MSKKGIDVSVWQGDIDFNAVKASGVEFVIIRAGYGIGHKDKWFEENYRKAKTAGLDVGSYWYSYASSAGEVALEAQSCVNILSGKSFEYPVYFDLEEKSQLNRGRDFCDSLITSFCNKLEACGYYAGFYTSLSVANNLVSSHVRDRYALWIAQWNTHCSYQGSYGLWQYSSSGSVNGIAGRVDMDYAYVDYPSVIKNAGLNGYQNGGSYTAPQTSSIDEVAREVINGDWGNGIERKNRLTSAGYDYTSVQNKVNELLGVKAYRKSVDELAREVIRGTWGNGKTRKQRLTQAGYDYNAVQKRVNELL
modifications: EL12_strain_3549624_non-prophage
B5: H5B5: natural Gardnerella prophage endolysin from strain JCP7276 (protein)
chain: MSKKGIDVSEWQGDIDFNAVKASGVEFVIIRAGYGIGCKDKWFEQNYRKAKTAGLDVGAYWYSYANSSSEAAEEAQSCANMLSGKSFEYPVYFDLEEKSQLNRGRAFCDSLITGFCSKLEACGYYAGFYTSLSTANNLVSAHVRNRYALWIAQWNTHCSYQGSYGLWQYSSNGSVPGVAGRVDMDYAYKDYPSIIKNAGLNGCKNGGSDQAARTSSIDEVAREVINGAWGNGNERKQRLTQAGYDYTSVQNKVNKLLGVKACRKSVDELAREVIRGTWGNGNERKNRLTQAGYDYDTVQKRVNELL
modifications: EL5_strain_JCP7276
notes: natural Gardnerella prophage endolysin from strain JCP7276
B6: H7B7: natural Gardnerella prophage endolysin from strain AMD (protein)
chain: MSKKGIDVSEWQGDIDFNAVKASGVEFVIIRAGYGIGCKDKWFEQNYRKAKTAGLDVGAYWYSYANSASEAAEEAQSCANMLSGKSFEYPVYFDLEEKSQLNRGRAFCDSLITSFCSKLETYGYYAGFYTSLSTANNLVSSHVRNRYALWIAQWNTHCSYQGSYGLWQYSSSGSVPGVAGRVDMDYAYKDYPSIIKNAGLNGCKNGGSDQAARTSSIDEVAREVINGAWGNGNERKQRLTQAGYDYTSVQNKVNKLLGVKACRKSVDELAREVIRGTWGNGNERKNRLTQAGYDYDTVQKRVNELL
modifications: EL7_strain_AMD
notes: natural Gardnerella prophage endolysin from strain AMD
B7: H4B4: natural Gardnerella prophage endolysin from strain Gv5-1 (protein)
chain: MSKKGIDVSEWQGDIDFNAVKASGVEFVIIRAGYGIGCKDKWFEQNYRKAKTCGLDVGAYWYSYANSGFEAAEEAQSCVNMLSGKSFEYPVYFDLEEKSQLNRGRAFCDSLITSFCSKLETYGYYAGFYTSLSVVNNLVSAHVRDRYALWIAQWNTHCSYQGSYGLWQYSSSGSVPGVAGRVDMDYAYVDYPSIIKNVGLNGCKNGGSDQATRTSSIDEVAREVINGAWGNGNERKQRLTSAGYDYASVQNKVNKLLGVKAYRKSVDELAREVIRGTWGNGNERKQRLAQAGYDYDTVQKRVNELL
modifications: EL4_strain_Gv5-1
B8: H11B11: natural Gardnerella prophage endolysin from strain JCP8017A (protein)
chain: MSKRGIDVSVWQGDIDFNAVKASGVEFVIIRAGYGIGHKDKWFEQNYRKAKTTGLDVGAYWYSYASSAGEAAEEAQSCVNILSGKSFEYPVYFDLEEKSQLNRGRDFCDSLITSFCNKLETYGYYAGFYTSLSVANNLVSSHVRDRYALWIAQWNTHCDYQGSYGLWQYSSSGSVDGIAGRVDMDYTYVDYPSVIKKAGLNGYKNGGSYTAPQTSSIDEVAREVINGDWGNGNERKNRLTSAGYDYTSVQNKVNELLGVKAYRKSVDELAREVIRGTWGNGSTRKQRLTQAGYDYDAVQKRVNELL
modifications: EL11_strain_JCP8017A
notes: natural Gardnerella prophage endolysin from strain JCP8017A
B9: H3B3: natural Gardnerella prophage endolysin from strain Gv18-4 (protein)
chain: MSKKGIDVSVWQGDIDFNSVKASGVEFVIIRAGYGIGHKDKWFEENYRKAKTAGLDVGSYWYSYASSAGEASEEAQSCVNILSGKSFEYPIYFDLEEKSQLNRGRDFCDSLITSFCNKLEACGYYAGFYTSLSVANNLVSSHVRDRYALWIAQWNTHCSYQGSYGLWQYSSSGSVNGIAGRVDMDYAYVDYPSVIKNAGLNGYQNGGSYTAPQTSSIDEVAREVINGDWGNGNDRKNRLISAGYDYASVQNKVNELLGVKAYRKSVDELAREVIRGTWGNGSMRKHRLTQAGYDYDAVQKRVNELL
modifications: EL3_strain_Gv18-4

Each molecule was assayed on Gardnerella cells (assay: Turbidity reduction (OD) assay of Gardnerella suspensions). Conditions: Gv_10 pH 6.0, Gv_17 pH 7.0, Gv_23 pH 7.4; aerobic, room temperature; vs buffer.
Assay type: cell-based
Description: FIGS. 4A to 4C show three enzymatic activity assays where the enzymatic activity of natural Gardnerella prophage endolysins of the present disclosure is measured by detecting the change in turbidity of a suspension of Gardnerella cells. In FIG. 4A, the enzymatic activity of the endolysins is measured by detecting the change in turbidity of a suspension of the G. leopoldii strain Gv_10 at pH 6.0. In FIG. 4B, the enzymatic activity of the endolysins is measured by detecting the change in turbidity of a suspension of the G. piotii strain Gv_17 at pH 7.0. In FIG. 4C, the enzymatic activity of the endolysins is measured by detecting the change in turbidity of a suspension of the G. swidsinskii strain Gv_23 at pH 7.4. Treatment was conducted in a medium adjusted to the appropriate pH in a photometric cuvette against buffer. Then, the change in turbidity was assessed by measuring the optical density (OD) at 600 nm. As a result, the drop in turbidity was more pronounced for the endolysin treated groups than for the buffer, indicating enzymatic activity.
To test the activity of the purified endolysins, the turbidity change of Gardnerella suspensions (see Table 2) was measured at 610-620 nm using essentially the method described in Reference Example 2, where 95 ul of bacterial suspension in Hardy Broth at the indicated pH was mixed with 5 ul of endolysin solution in a photometric cuvette under aerobic conditions at room temperature. In turbidity reduction assays, a decrease in light scattering (i.e., turbidity reduction) of a suspension of live cells can be used in a spectrophotometer to assay the activity of peptidoglycan hydrolases. The reduction in optical density over time (minutes) can be used to calculate a rate of hydrolysis. Results are compared to a “no-enzyme added, buffer only” control preparation treated identically for the same period of time. In this manner, a specific activity of the enzyme preparation can be reported as ΔOD/time/ul lysin protein. […] As explained above, due to the low content of peptidoglycan in the cell wall, the fact that a peptidoglycan-degrading enzyme such as the identified endolysins could efficiently lyse the bacterial cell walls was an unexpected and surprising discovery.
Gardnerella cells were recovered from cryo stock by plating on Chocolate Agar plates (Beckton Dickinson) and incubating for 48 h at 37° C. under anaerobic conditions. For Lactobacilli, BD Schaedler/5% sheep blood agar plates were used instead. Colonies were scraped from the plate, resuspended in Hardy Broth or NYC-III-HS-5.0 at the pH as indicated, and the suspension adjusted to OD (610 or 620 nm as indicated) 0.1. It has to be noted that two Tecan Microplate readers, having respectively a 610 nm or 620 nm filter, have been used interchangeably in the experiments. Although it doesn't make any difference for the experiments, the exact wavelength used is specified in each example. If not stated otherwise, 90 μl cell suspension was mixed with 10 μl endolysin solution, for the different species/endolysin combinations, in 384-well plates. OD(610-620 nm as indicated) was measured at the beginning of the reaction and at the end, either as two measurement points or as a continuous kinetic in a Tecan F200 Microplate reader. The reactions were incubated for 5 hours (or otherwise the time indicated) at 37° C. under anaerobic, micro-aerophilic or aerobic conditions as indicated. Anaerobic conditions intend that oxygen was fully depleted from the container in which the bacteria are incubated (Sigma-Aldrich anaerobic jar or sealable lunch box) with an anaerobic sachet, and the lack of oxygen was confirmed with an anaerobic indicator inside the container. Where micro-aerophilic conditions are indicated, the candle-in-a-jar method was used (tea candle lit in an appropriate sealable container, which reduces oxygen levels until the flame dies out). […]
For B1, the “enzymatic activity by drop in turbidity (capacity to lyse Gardnerella cell walls)” value (“enzymatic activity by drop in turbidity” below) was “active”.
B2 was tested, and the “enzymatic activity by drop in turbidity” value was “active”.
B3 was tested, and the “enzymatic activity by drop in turbidity” value was “active”.
In the case of B4, the “enzymatic activity by drop in turbidity” value is reported as “active”.
With B5 the “enzymatic activity by drop in turbidity” value was “active”.
With B6 the “enzymatic activity by drop in turbidity” value was “active”.
In the case of B7, the “enzymatic activity by drop in turbidity” value is reported as “active”.
B8 was tested, and the “enzymatic activity by drop in turbidity” value was “active”.
With B9 the “enzymatic activity by drop in turbidity” value was “active”.
